# Experimental data taken from the DeepSol protein solubility set.
# Assay: soluble on expression in E. coli; label from the status in PepcDB or PDB records
row,Sequence,soluble on expression in E. coli
1,MRYAAYYAPRPDSALWRAGCEWLGYDAAGGAQLPRPDVEGVEAGELAGLTREAARYGWHATLKAPFALRPGVGEDALLLQTSMLARRFQPFALSLQVGWLGDFLALRPAGPCAELDELAAACSVSLEGLADRHAPLRPREGLDPRQQALYRRWGYPYVFEQFRFHLTLSDRLDRESAAAVLIERGARRHFAGLLQQVAVAGVTLFVEREQGGPFRYLAYCGFNGEVARHGR,not soluble
2,MSNYTWKQADIQTLISFYETLGEEINPKVQKVQQNSEANSFSEKAKKFGLLDLPIYSKCVDSSQLIAESASRVYHDAKEYMNNGSATEAELYRFVSSILKEVLEPIFNPKEIRNVLKGLITSLVDSRSRDEEIGSDIEKNVKYEVVRFLPESPPNFPGFNDNVSRSITNFIGYFALHTIRHHCYVNFGVDGELKFYQRNMYKKAFDDLRVNKAKPTVSVKPEASLKREPKAETPTLTRVKPEIRNDSDEDFCEIIEPAVKKSKTRQTSESNAKGGKELKDFPEKYMLEDLDKDDLPMNFKTKFRKLVEQNQMLRDEINDYKELIQLKIAEKKQRMG,not soluble
3,SSNKEGSGGFRKRKHDNFPHNQRREGKDVNSSSPVMLAFKSFQQELDARHDKYERLVKLSRDITVESKRTIFLLHRITSAPDMEDILTESEIKLDGVRQKIFQVAQELSGEDMHQFHRAITTGLQEYVEAVSFQHFIKTRSLISMDEINKQLIFTTEDNGKENKTPSSDAQDKQFGTWRLRVTPVDYLLGVADLTGELMRMCINSVGNGDIDTPFEVSQFLRQVYDGFSFIGNTGPYEVSKKLYTLKQSLAKVENACYALKVRGSEIPKHMLADVFSVKTEMIDQEEGIS,soluble
4,MTKKKLLKALAVAAIATSLVACSDSSSNDKTLTTAVSSGSSVATTTVAAPADNTNVTANASYIIGYGMGSSIATDKNIKTFNLNNDKVMAGFEDAINAKKPAIPLEDIANNMNTLRDKMQQQMNQKAVTSFLSVQDGIYNSDLTPKSDIKNPDVVVYEFFDYQCMYCSKLAPEIEKIMKDNSDVQVVFAEFPIFGQKLPASEYAAEVSTAIYKLYGADAYVKYHNGIFATGEDEGSLKNATVDNVAKQAGADMTKVNKAIQDDKIADHLKDMLKMGFGQLGIQGTPFLVIAPAKNATVANTTIIGGYTTADGIQAAINKAKSTATTTSTSNNGQTDTKQAQNDIATVTAEAQATSGSTEQLAQPR,not soluble
5,MKINNGPVLCPHCGCLSAYYEIDRLAAIREKVNKEGGSAAWDSTLQAHKKKAFCLMCHKSIDEVVIGQSDAPESTK,not soluble
6,MSLAPAEWVALNYVPFAERSLEVVVDLYQKTACHKAVVNEKVLQNIIKTLRVPLSLKYSCPSESTWKLAVSSLLRVLSIGLPVARQHASSGKFDSMWPELANTFEDFLFTKSIPPDNLSIQEFQRNENIDVEVVQLISNEILPYANFIPKEFVGQIMTMLNKGSIHSQSSSFTEAEIDIRLREEFSKMCFETLLQFSFSNKVTTPQEGYISRMALSVLLKRSQDVLHRYIEDERLSGKCPLPRQQVTEIIFVLKAVSTLIDSLKKTQPENVDGNTWAQVIALYPTLVECITCSSSEVCSALKEALVPFKDFMQPPASRVQNGEEGHHHHHH,not soluble
7,MGSDKIHHHHHHMARYTGPLCKLCRREGMKLYLKGERCYTDKCAFDRRPYAPGQHGQRRTKLTQYGIQLRAKQTVKRIYGILERQFERYVEKAMQKAGDTRENLIQILEARLDNVVYRMGFAINRRQARQLVNHGHFLVNGKKVNIPSYLLRPNDVVEVREKSRDLEVIKKAIEANKERSIVPWIEVDYDNYRGTFLRYPSLEEVTDLPVDLQTVIEFYSR,not soluble
8,MQLDPGRGYDLIGDVHGCAHTLDRLLDLLGYRLQGGVWRHPRRQALFLGDIVDRGPRIREALHRVHAMVDAGEALCIMGNHEFNALGWSTPAAPGSGRQYVREHTPRHARLIKETLEQFEGHDADWRDFLGWFQQLPLFLDAGRFRMVHACWDGELIATLRRQFPDGRISEAFLQESAEPGSFADLACNRLLRGTDMRLPHGATLTSSDGYTRAFFRTKFWVEDEAPRTYGDIVFQPDALPEAIAREPLSEEQKSSLLTYGADEPLLFVGHYWRRGTPAPIRPNLACLDYSAVMYGKLAAYRLDEETRLDRHKFVWVEVKRPEADE,soluble
9,MGSDKIHHHHHHMVAQLETPSANSSLSLPYPIEGLVQVFTSSHRNFFTSVMGQALRIAGQGTPVLIVQFLKGGIKQGQDRPIQLGQNLDWIRCDLPRCIDTPHLDESENQALQKLWLHTQQVVDEDKYSLVVLDELSLAIHFGLIPESDVLAFLAKRSPHVDIIFTGTEMPQSILDVADQITEIRRSHCP,not soluble
10,MIVMTKQQYQEILEHSRNALPNEACGLLGGRIENGVKYVEKVYLLRNIDESPEHFSMNPKEQFAAVKDMRNNGWELLGNFHSHPATPSRPSEEDIRLAFDPKASYLILSLKDDTPVLKSFNISSGQATQEELSIVGEEALEHHHHHH,soluble
11,SRFTISAAKPEDCKDIERMIMELAVYENMPDQVKISHKELERDGFGPNPFYHCLVAEVPEEHKSKDGNTTVGYVIFFYTYSTWKGRTVYMEDLYVMPEFRGNGIGKALLGAVAKEAKDQLCSRLQFSVLDWNKPSLDFYMAKGAEDLTAKEGWHFLRFHGMALDNLAQEAP,soluble
12,MRAHEIEYKLYGDDMQFVEIELDPEESVIAEAGAMMMMEDYIEMETIFGDGSGPSGGLFGKLMGAGKRLVTGESMFMTVFTNTGHGKRHVSFAAPYPGKIIPVDLTEYQGKVVCQKDAFLCAAKGVSLGIEFTKKIGTGFFGGEGFIMQKLEGDGLAFMHAGGTVYKRELKPGEKLRIDTGCLVAMTKDINYDVEFVGKVKTALFGGEGLFFATLEGPGTVWIQSLTLSRLAARLTSPAAQSTGEGSVLGGLGRLLDGKE,not soluble
13,MMEMLVDQGTDASSSASTSTSSVSRFGADTFMNTPDDVMMNDDMEPIPRDRCNTWPMRRPQLEPPLNSSPIIHEQIPEEDADLYGSNEQCGQLGGASSNGSTAMLHTPDGSNSHQTSFPSDFRMSESPDDTVSGKKTTTRRNAWGNMSYAELITTAIMASPEKRLTLAQVYEWMVQNVPYFRDKGDSNSSAGWKNSIRHNLSLHSRFMRIQNEGAGKSSWWVINPDAKPGRNPRRTRERSNTIETTTKAQLEKSRRGAKKRIKERALMGSLHSTLNGNSIAGSIQTISHDLYDDDSMQGAFDNVPSSFRPRTQSNLSIPGSSSRVSPAIGSDIYDDLEFPSWVGESVPAIPSDIVDRTDQMRIDATTHIGGVQIKQESKPIKTEPIAPPPSYHELNSVRGSCAQNPLLRNPIVPSTNFKPMPLPGAYGNYQNGGITPINWLSTSNSSPLPGIQSCGIVAAQHTVASSSALPIDLENLTLPDQPLMDTMDVDALIRHELSQAGGQHIHFDL,not soluble
14,MKKEKAIVVFSGGQDSTTCLLWALKEFEEVETVTFHYNQRHSQEVEVAKSIAEKLGVKNHLLDMSLLNQLAPNALTRNDIEIEVKDGELPSTFVPGRNLVFLSFASILAYQIGARHIITGVCETDFSGYPDCRDEFVKSCNVTVNLAMEKPFVIHTPLMWLNKAETWKLADELGALDFVKNNTLTCYNGIIADGCGECPACHLRSKGYEEYMVMKGERA,soluble
15,MGSDKIHHHHHHMMKTELHFKKSLLVSAVALATFALAGCANTAPQGKYVDGVHHVSGKGKKSDITLEVKVEQGNITQVKTLSHKETESLYLNAERLLPEIVSHNGHEGIDAISGATYSSNGILKAINDLPRIDGTKPEYQSVGARSQTGDDDFKLKWSIQPRLGLVKGDYYFEEARFRQGHMGSMLVVVDSNNLQDVILAEFNESGRPNYYTRLYQNVPKRMSEYNFSMGKKKGTAWVQSALTMEKLMMEKDQLTFELNPNYDPKLGNQLTEPNRLKYQGIDIVAGASNSIQQSMIPLTAKIHNRIQAGASDALFYQQAEKLLDEKGRWTGVTAMLRLVVDKNSHKITHAHYDEIFADEKKDIQDASLKAFYRQSKYDSINYVEPARIGFNVMIDALSLHLKEGGSLFNINDLPAAGDTGSYAQTGFTKRSDAWDNYLRLAGILYKQMRADGVINEHALPAQ,not soluble
16,MGSDKIHHHHHHMKEYIMSFFNAPVTNKIPTCICSVAGLHTYISTNPQLEELTRKVRAGLGDKQVFRKNKQTLLPYVTPAGIFSYCKEQCMQVPSGLFVIDIDELASTEEAAMWRDRLFADEVLHPVLSFVSPGNQGVKLFIPYRINPFLSVEESFDNALHTAWEYLEWKYELKVDRANADLSRACFLSHDGEAKINNHKY,not soluble
17,MAQTERRDAPELPDFSLLKRLARDQLIFLLEQLPGKKDLFIDADLMSPLDRIANVTILKQHEVDKLYKVELKPIVSSSDQLCFLIRPRIQTVKWISDLVNSDKVAGRFRRYKIIFTPQKFYACETVLEEQGVYGDVTTDEWNFYILPLDDDILSLELPEFFRDNFLEGDQRWVTTGGGALHLLQSVYGSFSKVYGIGRCAKMVYESWRELMEEGEQRTRQPEFAKVFLIDRDVDFVTPLCSQVVYEGLVDDIFRIKCSSVEFGPDVTSSDKSIKVMLNSQDKVFNEIRNEHFSNVFGFLSQKAKNLQTAYDKRRGMDIQQMKAFVADELKGLKQEHRLLSLHIGASESIMKKKTKQDFQELLKTEHSLLEGFEIRECIAYIEEHINRQVSMIDSLRLLCLLSITENGLLSKDYRSLKAQYLQSYGIEHLLTFANLRQLGLLEEQQTGETLTVMESKVGKLVNDKTAGKLTDAFSSLAKKSNFRALSKRLALVPKSGEEYDLRVPRDMAYIFSGAYIPLSCKLIEQVLERDGWTGLEEVTRMLNGQDFAVTGGSSSSEARNKSNGQRIILVMFLGGCTYSEISALRFLGKERGCRFIVLTTAITNSGRLLEALLDKHV,soluble
18,MHDRSYTLDDVTVAMGTYNEAAAIDTVLTDIADATDDRARVVCVDGSSDRTPEIAREHGATVIEQEPQGYGVAVAAALDAADTPVVITTDCDNTYPMERIPAFLARINEGYDVVSGDRLYWGADTMPAFNRLGNAAFAAITSLLVGERVHDTTTGMRAYRAPVIDAIDWTQNTGLSAELLIRPLCRNYDVIEEPIGYADRLGDTKLDPLEGGAEILGSILKVCAEERLPLEHHHHHH,not soluble
19,MQTNLLSRPTSAKSTSMSDKINHPQLCQWLESVAISRDKQAFTHLFQFFAPKILRIARGKFPNEAQANEVVQDTMSNVWRKAHLYNQDKGAATTWVYTVMRNVTFDMLRKIQGNKEDNLSDDIWPIAESMSIENEIFDDHLEHANLLSVIEELPQAQQDVVKGFYFREMSQEQLAVHLHLPLGTVKSRLRLALGKLKVQLGEKHD,not soluble
20,MSLMNAEQGVCAWAMNHPLEREYHDKEWGRAVHDDTKLFEFLTLEGAQAGLSWLTVLKKREGYRQAFLGYDLQRLAQCDESHVEQIIAEYDVVKHRGKIASVFSNARAALALQQEFGSLDAALWQFVGGQPKINRWVSMSDVPASTEESKAMSKFLKKRGFKFVGETICYAFMQACGLVNDHLVGCPNHSNADKLEGGSHHHHHH,soluble
21,SLVPRVMSTQHPDNARIPFFAASEVLNGEDEVREAYYVFSHFKCDEQMWDFEGKEADAHIVRKLLSSYYDFFSSRPLGKDFRLTMRVPNPEIEKGEAKLLAETLEMIPRSYDYVRSLGIEHPPIFEVILPMTRSAEEVMKVHAFYRDFVAGKGRFELLGEKVSDWLGDFLPEEIKVIPLFEDRDSLMRAAEISERYAEWAELDELRVFLARSDPAMNYGFVAATIYVKKALYDLSQLGISTYPILGVGSCPFRGGFSPKNLSVLDEFPSVYTFTVQSAFKYDYEFGDVRRAIKRAKEAARRKSDYVDEEHLQVAEKLKDGYRRRIAKIAEIVNRISSRIPRRRMRKLHVGLFGYSRGEEIKLPRAITFCASLYSIGLPSEIIGIAEMSDKDYEAVCEVFKNFDGMMESAMSLFNPESLKIVDLSMDFERAKELFGYEPDERHLEKTNEIIKQIDGDIKNLVVEAGILRGFLG,soluble
